Experiment: soluble on expression in E. coli; label from the status in PepcDB or PDB records

Sequence	soluble on expression in E. coli
MSLRVENLRSSTYRNGPTGLPNRARFSEDLDAVLLQRTADSAATAIAVDLCGSDYFRDMVKALGWDYADGYVALAYKRLISKLPAGTALYRLDTTTFAFMVTTADPLRLSALCSKISKGFVAPLEHQGIPHTAVASIGAVLLETSYGAADTLRSLTTSVDVAREHCLTWSLYERKHDVVQRNTFRLLAALPAALASSNQLRLHYQPRVDLHDHRCVAVEALLRWQHPMIGPVMPSDFIPMAEKTALINRITAWVIDQGIAQAARWQQQGLDFNLALNVSAADLDQPGFVGLLRRGLDRHKLDPRRLEIEFTESAMIRHPEHLSEQLAAVAALGVHIAIDDFGTGYSNFSYLKQLPASSLKIDQSFVRSLPDSRTDRTLVPAMIQLGHSLGQRVVAEGIESAQAYAQLRSWGCDEGQGYWIAKPMPAAALEAWLETPWYQRATDAEGHHHHHH	soluble
MSLSAADMTQTIKTLALNVRLSCELLGVPESSYYERINRRPSETQLRRQHLTLKIVQLFKANRGIYGAPKIHHLLLDKEEKVGVKLVQKIMQQLQLKSVVLKKFKPGYSASDGINRKNLVQNEPTERNKVWSTDITYIPTQQGWAYLSTIMDRYTKKVIAWDLGKRMTVELVQRTLNKAIKSQDYPEAVILHSDQGSQYTSLEYEELLKYYGMTHSFSRRGYPYHNASLESWHGYLKREWVYQFKYKNFEEAYQSIFWYIEAFYNSKRIHQSLGYLTPNQFEKVSAEGHHHHHH	not soluble
MSLSALFCQAAAVAVTISGFAFSPAQTTVQVGDVITWTNMDNTLHSIVSTAVPAGAAPFTSGTFGKNETFTYTVTEAGDYTYQCGVHTSMLGAFTATITTPVVKPTLILEALYPNPASASIHIESPKSIKSIDIYSETGVLVKTLAFTSASVDVPIGELNKGAYLLRITSEDGMFDTRRIIKEGHHHHHH	soluble
MSLSATSNSNWDRRSVLRAAAGLAALGPLAACGSNTGRSGGGSSGESLVQYFHAYGEAGTEQAIRRYAKAYDKAAVTTQWITGTNFESKLFSALLTDNAPDVFEFHPQLQMIKSGQVAALDDIIDPVKDDFNPADITSHTVDGKVYGVRMIDDPQFFFYRKSLLEKAGTGVPQTLDELAEAAAKLTTDKVKGLFLGNNMVAPNYALVWAAGADQLNAKNEIAYHTDEVAAALKVYRKMFTSGHLLLDAPADYWDPSALVQGLTAIQWCGMWAMPVMQQALGDDLGIFPFPSAASGAKPAVYNGGWSMFVNAKGKNVDLAKEYVKWLWIDQKKYQEDWALSYGFHIPPRTSTAESATKLKSGLPAEGVKLFTDYGRFDNVSWTQAMISALEGVIADAVRKGKDPEAALDTADKKVNRELKNLFGEGHHHHHH	soluble
MSLSCWKPLSKEEFEAIVSKYKDNPKIEIDYENLKFIPKFNEQIKKYYSNKIKGAKVENLVNEVYEAWFDYIIRIYERPKEKDILMFLPCAAKKPYYKSKTHRTIQRAISGFQIFNRIHRVIVSNPGIIPWEFHTYWPFNSYDWPEWEETEDIKKLYYWVTYKRVKEFLRRHQYNYYTVYMKPDSLTYKAVMDASKELNIKIIPLLDEKTYEKCKGQGNPLVKEPCIESLKNNLKQLQKQIYEGSNSEGHHHHHH	soluble
MSLSDDPMASIKLLNLERENSAIAQYQSNIANLKTTLSSQETHLDSVNESLKSMRDIVLWGANGSLTDQDRSGMITELKSYRDSIESSFNAQDEEGHFLFSGTKTDTAALNKSSGAYVVEGNSDVRVVTVAKGVTMDSNMTAQEILDIGGGKNVLNQIDALIAEFEKPSPNFQAEVDASLNAIDDTMANVLGAMTEIGGRHNNLDLMDGAHSENKLFVDKVSGDLSALDYGEASVRLSNYMAALQATQASYVKINDLSLFDREGHHHHHH	soluble
MSLSEDLFDVEVRNFEEGDKVTGTVTSVEDKQVYVGIPGSKLDGVVPISELSNIHVETASDVVSVGDTLDLIVTKVEDDILVLSKRKVDAEKASDDIKAKFESGEVFEAVVSDVVKGGLVVDLGVRAFVPASLVEDHFVEDFADYKGTTLTFKVVEFEPENNRVILSHRAVVETEKASQKQALLSEIKEGDVIEGTVQRLANFGAFVDIGGVDGLVHISQISYKHIATPQEALEEGQKVTVKVIGIDPENERISLSIKATLPGPWDGIAEKAPVGSVLEGKVVRLVTFGAFVEIFPGVEGLVHISQISHEHIGTPQEVLSEGQTVEVKVLEVNEADKRLSLSIKELKDAPVEEADYELPEENTGFQMSDLIGDKLKGLQNDDKEGHHHHHH	soluble

Reference: the DeepSol protein solubility set
